Key:
dGAE aggregates = dGAE aggregates (Homo sapiens, UniProt P10636); test: Sandwich ELISA on SDS/Triton X-100 treated dGAE aggregates; format: binding; design: key to LoD, 423 mAb capture, Untreated dGAE agg. / LoD, Direct immobilisation of dGAE aggregates, Untreated dGAE agg.: NB denotes no binding; conditions: untreated aggregates
Protocol: We have noticed Sodium dodecyl sulphate (SDS) can break apart dGA/dGAE aggregates and separate them into smaller fragments by performing an SDS-PAGE. This has been replicated and tested using an ELISA as described below.
For aggregation, 1000 μL 100 μM dGAE+10 μL 10 mM DTT was added to a ‘LoBind’ microfuge tubes and agitated at 700 RPM/37° C. for 24 hours. Resulting sample centrifuged at 17,000×g/4° C. for 60 min and supernatant discarded to remove left over monomer. Pellet resuspended in half the original volume for future experiments and hereafter referred to as ‘aggregates’. 1 μl of aggregates was added to 1 ml of PBS and SDS was added to a final concentration of 1% (w/v). This was left to incubate on lab bench for 1 h with gentle agitation every 15 minutes. In order to neutralize the SDS effect on ELISA, Triton X-100 added to a final concentration of 3% (v/v) and mixed gently by pipetting to prevent any bubble formation. 200 μl added of this mix was to the first well of an ELISA plate coated with 1 μg/ml S1D12 mAb and blocked with 2% MPBS. Similarly aggregates treated with only SDS or Triton X-100, untreated aggregates, dGAE monomers treated with only SDS or SDS+Titon X-100 were also added to designated wells as controls. All samples were then double diluted across the plate in final volumes of 100 μl. The final column was left with no protein to act as a blank. This was allowed to stand at room temperature for 1 hour followed by the addition of detection scAb-S1G2 at 10 μg/ml. Anti-HuCk HRP labelled secondary antibody was added as described previously and ELISA data generated was represented using the graph below.

hT40 = target: T1, hT40 (Homo sapiens, UniProt P10636); test: Sandwich ELISA limits of detection (LoD) of antibody pairs; format: binding; conditions: S1D12 mAb capture; hT40
T1 construct: Full length tau (hT40)
Excerpt: The diverse panel of high affinity anti-tau antibodies (scAb and mAb formats) were paired in various combinations and tested in a Sandwich (or Capture) ELISA format to calculate their limits of detection (LoD) and their ability to differentiate between different tau species. Biologically, tau exists in 6 different isoforms and is subjected to numerous post translational modifications, some of them playing a significant role in the progression of neurodegeneration.
For Sandwich ELISA using colourimetric detection, 96 well Maxisorp plates were coated with the capture antibody S1D12 mAb at 1 μg/ml for 1 h at RT followed by blocking with 2% MPBS as normal. Full length tau (hT40), at 1 μg/ml starting concentration was added to designated wells and double diluted across rest of the plates and left to incubate at R/T for 1 h. A series of detection scAbs with varying epitope recognition properties were added at 10 μg/ml to designated wells (FIG. 22). For colourimetric detection HRP conjugated anti-HuCk secondary antibody was used and the resulting immunoreaction was developed and absorbance at 450 nm measured as described previously. Cut-off point for a positive binding event was an absorbance value of 0.3 following background subtraction. In order to enhance the assay sensitivity, a chemiluminescent detection method was adopted where 50 μL SuperSignal ELISA Femto Substrate (Thermo Scientific) was added to each well following incubation with anti-HuCK HRP antibody and subsequent washing. The luminescence was read using Clariostar Plus microplate reader. A further modification to this protocol was done where various detection scAbs were directly conjugated with HRP and detected using chemiluminescent protocol as before. The lowest levels of detection achieved using different detection scAbs and a comparison of colourimetric and chemiluminescent methods of detection are shown in Table 28
Similarly, a sandwich ELISA format was set up using S1G2 mAb at 1 μg/ml as the capture antibody and HRP conjugated S1D12 mAb for detection. The assay was conducted using chemiluminescent protocol described above.

dGAE aggregates, sequence (P10636 614-708): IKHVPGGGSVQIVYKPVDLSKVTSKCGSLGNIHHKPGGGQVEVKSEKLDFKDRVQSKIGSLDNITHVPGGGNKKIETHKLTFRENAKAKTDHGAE
T1 sequence (P10636 1-441 isoform P10636-8): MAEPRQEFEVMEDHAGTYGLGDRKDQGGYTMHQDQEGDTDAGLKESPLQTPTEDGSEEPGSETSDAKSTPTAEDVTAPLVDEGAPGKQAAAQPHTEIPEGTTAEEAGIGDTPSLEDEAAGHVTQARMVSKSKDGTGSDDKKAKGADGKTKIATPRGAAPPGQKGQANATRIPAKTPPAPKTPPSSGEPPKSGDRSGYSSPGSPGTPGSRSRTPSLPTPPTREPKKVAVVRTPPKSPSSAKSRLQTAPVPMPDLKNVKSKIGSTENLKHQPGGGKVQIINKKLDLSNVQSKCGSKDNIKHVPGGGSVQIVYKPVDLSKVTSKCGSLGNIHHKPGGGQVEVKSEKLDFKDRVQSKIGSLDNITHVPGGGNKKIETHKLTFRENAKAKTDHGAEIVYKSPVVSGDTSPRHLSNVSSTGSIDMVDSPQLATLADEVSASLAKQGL

LoD, 423 mAb capture, Untreated dGAE agg. (dGAE aggregates; sandwich ELISA, 423 mAb capture): NB
LoD, S1D12 mAb capture, Untreated dGAE agg. (dGAE aggregates; sandwich ELISA, S1D12 mAb capture): 250 ng/mL
LoD (ng/ml) direct HRP conjugation of detection scAb & chemiluminescence (hT40): 0.04 ng/mL
B1: S1G2: sheep-derived anti-tau core clone; scFv SEQ ID NO: 81, VH 455, VL 456 (protein)
scFv: QVQLQESGPSLVKPSQTLSLTCTVSGFSLTSNSVGWVRQAPGKAPEWVAGIDTDGEEGYNPALNSRLSITRDTSKSQVSLSLSSVTSEDTAVYYCGRSYRADGLAYGYVQAIDYWGPGLLVTVSSEGKSSGASGESKVDDQAVVTQPSSVSGSLGQRVSITCSGSFIGISSVGWFQQLPGSGLRTIIVASDGRPSGVPDRFSMSKSGNTATLTISSLQAEDEADYFCGSSDRTPYTGVFGSGTRLTVLG
modifications: S1G2 amino acid sequence
LoD, Direct immobilisation of dGAE aggregates, Untreated dGAE agg. (dGAE aggregates; direct immobilisation): NB
